Assay results from EP2009026A1 (ThromboGenics N.V., dated 2008).

B1: murine monoclonal anti-VPAC1 antibody 23A11 (antibody, V domains shown)
VH: EVQLQESGPSLVKPSQTLSLTCSVTGDSITSGYWNWIRKFPGNKLEYMGYIRYSGSTYYSPALKSRFSITRDTSKNQYYLQLNSVTTEDTATYYCSNWAYWGQGTLVTVSA
VL: DIVITQDELSNPVTSGESVSISCRSSKSLLYKDGKTYLNWFLQRPGQSPQLLIYLMSTRASGVSDRFSGSGSGTDFTLEISRVKAEDVGVYYCQQLVEYPLTFGAGTKLELK
notes: Murine hybridoma antibody (BALB/c mice); also called murine 23A11; anti-VPAC1 receptor antibody 23A11
B2: humanized 23A11 antibody (isotype not stated in Example 8) (antibody, V domains shown)
VH: EVQLQESGPGLVKPSQTLSLTCTVSGDSITSGYWNWIRKHPGKGLEYMGYIRYSGSTYYSPSLKSRFTISRDTSKNQYSLKLSSVTAADTATYYCSNWAYWGQGTLVTVSA
VL: DIVITQSPLSLPVTPGEPVSISCRSSKSLLYKDGKTYLNWFLQRPGQSPQLLIYLMSTRASGVSDRFSGSGSGTDFTLKISRVEAEDVGVYYCQQLVEYPLTFGQGTKLEIK
notes: The constant regions are human IgG1 or IgG4; also called humanize 23A11 antibody; rhu23A11

How the values were obtained:
[1] = target: T1, murine VPAC1 receptor on mouse bone marrow-derived CD41/61+ megakaryocytes (mouse, UniProt P97751 31-459); experiment: immunoblot of mouse bone marrow-derived megakaryocytes
T1 construct: whole, on cells; Endogenous receptor; It was detected by immunoblot of megakaryocytes and targeted on living megakaryocytes in the cAMP assay; also called VPAC1 receptor on the murine megakaryocytes
T1 sequence (looked up): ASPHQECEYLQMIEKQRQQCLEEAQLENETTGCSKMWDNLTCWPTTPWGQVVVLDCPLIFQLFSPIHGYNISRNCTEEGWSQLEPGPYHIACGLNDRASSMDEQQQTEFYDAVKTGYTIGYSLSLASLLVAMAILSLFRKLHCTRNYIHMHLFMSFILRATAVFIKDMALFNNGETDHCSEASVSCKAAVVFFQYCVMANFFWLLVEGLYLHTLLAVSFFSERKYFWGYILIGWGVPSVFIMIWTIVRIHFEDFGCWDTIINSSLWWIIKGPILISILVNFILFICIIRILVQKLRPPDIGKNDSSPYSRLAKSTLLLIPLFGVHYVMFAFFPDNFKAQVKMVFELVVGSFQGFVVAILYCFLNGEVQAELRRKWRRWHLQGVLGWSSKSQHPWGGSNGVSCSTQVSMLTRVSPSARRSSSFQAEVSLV

[2] = target: T2, GST-fused VPAC1 variant 4-2 (amino acids 231-457 of SEQ ID NO:15) (human, UniProt P32241 231-457); experiment: western blotting of GST-fused VPAC1 deletion variants
T2 construct: not shown: By analogy w [CUT]
T2 sequence: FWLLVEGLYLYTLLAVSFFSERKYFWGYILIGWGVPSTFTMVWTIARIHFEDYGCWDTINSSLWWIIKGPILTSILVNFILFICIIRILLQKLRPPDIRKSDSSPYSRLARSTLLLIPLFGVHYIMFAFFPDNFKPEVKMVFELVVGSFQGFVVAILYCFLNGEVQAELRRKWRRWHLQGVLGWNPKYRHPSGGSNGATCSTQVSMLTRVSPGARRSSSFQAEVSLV

[3] = target: T3, GST-fused VPAC1 variant 3-2 (amino acids 123-457 of SEQ ID NO:15) (human, UniProt P32241 123-457); experiment: as above
T3 construct: not shown: By analogy w [CUT]
T3 sequence: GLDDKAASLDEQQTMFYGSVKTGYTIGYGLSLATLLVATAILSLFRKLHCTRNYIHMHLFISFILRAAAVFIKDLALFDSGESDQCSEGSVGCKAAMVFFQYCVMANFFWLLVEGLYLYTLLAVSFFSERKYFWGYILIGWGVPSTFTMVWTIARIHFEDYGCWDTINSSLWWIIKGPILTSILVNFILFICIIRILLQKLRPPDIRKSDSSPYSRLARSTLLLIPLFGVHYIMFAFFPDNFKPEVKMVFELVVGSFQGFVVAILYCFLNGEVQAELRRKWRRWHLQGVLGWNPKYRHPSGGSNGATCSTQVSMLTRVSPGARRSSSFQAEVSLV

[4] = target: T4, GST-VPAC1 fusion protein (human VPAC1, full length) (human, UniProt P08515 1-218 = GST); experiment: SPR (BIAcore 1000), GST-VPAC1 immobilized on CM5 chip, antibody injected, 1:1 Langmuir fit; first batch
T4 construct: also called recombinant VPAC1

[5] = target: T4, GST-VPAC1 fusion protein (human VPAC1, …); experiment: SPR (BIAcore 1000), GST-VPAC1 immobilized on CM5 chip, antibody injected, 1:1 Langmuir fit; second batch
[6] = target: T4, GST-VPAC1 fusion protein (human VPAC1, …); experiment: SPR (BIAcore 1000), GST-VPAC1 immobilized; KA = 1/KD; second batch
[7] = target: T5, GST fusion protein of VPAC1 extracellular loop 2 (human); experiment: western blotting of GST-loop fusion proteins
T5 construct: also called isolated extracellular loop 2 of the VPAC1 receptor; not shown: GST (glutathione-S-transferase) fusion partner
T5 chain: IHFEDYGCWDTINSSLWW

[8] = target: T4, GST-VPAC1 fusion protein (human VPAC1, …); experiment: SPR (BIAcore 1000), GST-VPAC1 immobilized; KA = 1/KD; first batch
[9] = target: T4, GST-VPAC1 fusion protein (human VPAC1, …); experiment: SPR (BIAcore 1000), GST-VPAC1 immobilized; KA = 1/KD
[10] = target: T4, GST-VPAC1 fusion protein (human VPAC1, …); experiment: SPR (BIAcore 1000), GST-VPAC1 immobilized on CM5 chip, antibody injected, 1:1 Langmuir fit

Binder	binding result [1]	binding result [2]	binding result [3]	Kd [4] [nM]	Kd [5] [nM]	Ka [6] [M⁻¹]	binding result [7]	Ka [8] [M⁻¹]	Ka [9] [M⁻¹]	Kd [10] [nM]
B1	binds	binds	binds	28.3	19.9	5.04e+07	binds	3.54e+07	–	–
B2	–	–	–	–	–	–	–	–	1.02e+08	9.82
